We go through 3 molecules from PMC13225215, “Kinetic properties of optogenetic site-specific DNA recombination by LiCre-loxP”.

Series [1] addresses LiCre (asLOV2-Cre chimera) (synthetic chimera (Avena sativa LOV2?)) (UniProt P06956). Put plainly: SPR. As to conditions: SPR (Biacore T200, SA chip): 20 mM Tris pH 7.4, 50 mM KCl, 150 mM NaCl, 10 mM MgCl2, 1 mM DTT, 0.05% P20; 25 C; 0.3125-10 nM protein; no blue light.
The target in series [2] is Cre recombinase (UniProt P06956 1-343). Description: SPR; KD1, first unit; global kinetic fit of half and full site data; 10 mM Mg2+; no blue light; SPR (Biacore T200, SA chip): 20 mM Tris pH 7.4, 50 mM KCl, 150 mM NaCl, 10 mM MgCl2, 1 mM DTT, 0.05% P20; 25 C; 0.3125-10 nM protein; no blue light. As to conditions: protein: recombinant; tags: N-terminal 6xHis; chain copies: 2; label: 5'-biotin on 1Y70; blunt.

In series [1], “CGGAATTCAGATCTATAACTTCGTATAATGTGTCTAGAGGATCCGC (double strand) [half loxP (1Y70/1Y71)]” registered a Kd of 490 pM. The same measure, in the same setting: to “CGGAATTCACAACTTCGTATAATGTATGCTATACGAAGTTATGGATCCGC (double strand) [full loxP (1Y68/1Y69)]” belongs 6.1 pM.

B1: half loxP (1Y70/1Y71) (dsDNA)
DNA 1: CGGAATTCAGATCTATAACTTCGTATAATGTGTCTAGAGGATCCGC
DNA 2: GCGGATCCTCTAGACACATTATACGAAGTTATAGATCTGAATTCCG
Regarding B1, the Kd in series [2] was 1150 pM.
